Measured values taken from the supplement of paper PMC10567573.

B1: KCNG1 (parent)
chain: LFVTVTAVNLSVSTLPSLREEEEQ

Variants of: B1
Assay: protein stability index of a GFP-peptide fusion (GPS, HEK-293T) (PSI 1-6); higher = more stable
Settings: c terminus: a fixed tail appended
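Also: lentivirally expressed fusions sorted by FACS into six bins by GFP to DsRed ratio, PSI derived from sequencing read proportions per bin multiplied by bin number.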

Protein stability index of substitutions, site by site:
P16: S 2.05; R 1.75; K 2.5; N 3.87; D 1.19; M 3.14
E22: M 3.4; H 1.61; L 3.04; Q 3.16; S 1.89; T 2.14
L15: I 1.36; K 1.62; G 1.72; C 2.81; P 2.48
Q24: D 2.28; S 2.44; N 2.31; E 1.37; M 2.66; Y 2.27; K 1.74
V5: I 3.56; M 2.18; A 2.42; N 3.64; L 2.2; R 3.2; T 3.16; G 3.99; K 3.75; P 4.91; H 3.52; D 4.51; F 2.68; Y 2.14; E 4.46; S 3.5
V8: E 3.16; S 2.77; M 1.23; T 2.09; C 3.11; A 2.02; H 2.95; Y 2.15; P 2.29; R 2.51
N9: H 3.18; P 1.73; D 1.45; Y 2.02
E23: D 1.71; C 2.7; Y 2.93; T 4.29; L 3.24; K 2.12
S17: P 2.55; C 1.79; T 2.22; A 1.55; Y 1.51; N 1.7; K 4.4; H 1.26
L1: Y 1.97; D 4.52; N 4.05; I 2.27; K 3.84; C 2.1; T 2.62; P 4.33; F 1.95; S 3.56
T14: P 2.61; Y 2.34; E 1.99; R 4.33; H 2.56; S 1.36; M 2.01; V 2.13; K 1.77
F2: S 1.99; D 3.99; R 2.5; K 1.72; M 1.26; T 1.25; A 2.27; H 2.19; G 2.41; Y 1.75
R19: V 1.99; N 1.96; H 1.41; F 3.41; E 1.43; S 2.41; L 2.85; C 2.09
T6: A 1.69; N 2.29; L 1.25; P 3.96; D 3.21; R 1.64; S 2.27; H 1.85; G 1.3; E 1.79
V3: I 2.67; R 4.5; Y 1.92; Q 3.58; F 1.65; P 5.3; N 4.51; E 4.93; A 2.67; W 1.91; M 1.75; K 3.71; T 4.52; L 1.53; S 4.05
E21: N 3.49; P 2.06; R 2.43; G 1.01; Y 3.39; K 2.25; H 2.28
S13: I 2.89; F 1.52; Y 3.08; Q 1.78; H 1.29
E20: F 3.08; C 3.25; D 1.67; S 3.18; P 1.7; K 1.62; T 3.53
S11: G 1.73; R 2.63; M 3.64; H 1.72
L18: M 3.35; H 2.87; W 3.02; S 3.17; P 2.48; Q 2.23; I 1.62; T 3.48; Y 1.35; D 2.05; N 2.47
T4: P 3.13; M 3.06; Q 2.71; S 1.49; E 1.75; N 2.45; L 1.08
A7: H 2.5; K 3.01; M 2.03; G 1.5; I 4.2; T 1.34; Q 2.58; C 2.9; E 3.03; Y 3.4
L10: I 3.17; F 3.38; D 2.76; C 1.45; M 2.21; N 3.48; K 2.47; T 2.03; S 2.21; Y 1.95; V 1.9; H 2.44
V12: M 1.47; R 1.89; L 3.1; T 2.05; Y 2.08; W 2.35; G 1.45; A 2.71; H 1.53; C 2.79
